From publication PMC10977726 (PLOS ONE, 2024)

T1: biotin-Ly6E-rat IgG2b Fc (human | rat, biotin)
T1 chain: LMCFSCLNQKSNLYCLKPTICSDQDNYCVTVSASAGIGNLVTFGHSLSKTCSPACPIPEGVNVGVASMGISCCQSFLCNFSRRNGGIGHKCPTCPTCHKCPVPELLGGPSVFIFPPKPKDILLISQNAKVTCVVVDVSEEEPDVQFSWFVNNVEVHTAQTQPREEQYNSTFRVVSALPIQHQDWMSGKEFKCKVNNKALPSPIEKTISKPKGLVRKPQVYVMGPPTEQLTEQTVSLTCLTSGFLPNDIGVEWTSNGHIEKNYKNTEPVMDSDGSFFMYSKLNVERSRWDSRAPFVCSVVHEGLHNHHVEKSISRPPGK


How the values were obtained:
Details in all cases: both partners purified
[1] = biological target: T2, human IgG Fc (Biotin-SP-ChromPure Human IgG, Fc fragment) (human, biotin (Biotin-SP)); experiment: ELISA; […], room temperature; […]
[2] = biological target: T2, human IgG Fc (Biotin-SP-ChromPure Human …); experiment: SPR; […]; Biacore S200, […] (PBS with 0.05% Tween 20, pH 7.4); […]
[3] = biological target: T3, biotin-PDGF-bb (human, UniProt P01127 82-190, biotin); experiment: as above
T3 construct: also called human platelet-derived growth factor

[4] = biological target: T1, biotin-Ly6E-rat IgG2b Fc; experiment: as above
[5] = biological target: T2, human IgG Fc (Biotin-SP-ChromPure Human …); experiment: SPR

T3 sequence (P01127 82-190): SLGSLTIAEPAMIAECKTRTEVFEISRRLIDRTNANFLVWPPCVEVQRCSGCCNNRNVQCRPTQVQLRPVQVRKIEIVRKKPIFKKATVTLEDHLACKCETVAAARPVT

Binder | IC50 [1] | Kd [2] | other results
GCGYWYMQWFCKQDSDCLAGCVCRPKPECG (designed binder) [Ig-EET-4] | 823 nM | 948 nM | 
VGECVRGRCSAISCCSQFGYCGKGPKYCG (designed binder) [Ig-AMP-2] | 41 nM |  | 
GCQAHYWYRVWFCKQDSDCLAGCVCGPNGFCG (designed binder) [Ig-EET-1] | 447 nM | 228 nM | 
GCAFEGESCNVQFYPCCVSMKLMCIPGNPDGTCYYL (designed binder) [P-AST-3] |  |  | Kd [3]: > 50 µM
GCQIYQSQWSYLCKQDSDCLAGCVCGPNGFCG (designed binder) [L-EET-8] |  |  | Kd [4]: > 20 µM
VGECVRGRCSQISCCSQFGYCGKGPKYCG (designed binder) [Ig-AMP-3] | 62 nM | 353 nM | 
GCNMYSGPWRYFCKQDSDCLAGCVCGPNGFCG (designed binder) [L-EET-5] |  |  | Kd [4]: > 20 µM
GCAIYHMGWMFQCKQDSDCLAGCVCGPNGFCG (designed binder) [L-EET-7] |  |  | Kd [4]: 0.022 µM
VGECVRGRCSKISCCSQFGYCGKGPKYCG (designed binder) [Ig-AMP-1] | 55 nM | 243 nM | 
CKGKGAKCSRLMYDCCTGSCRSGKC [WT CON] |  | > 20000 nM | 
VGECVRGRCSSISCCSQFGYCGKGPKYCG (designed binder) [Ig-AMP-4] | 151 nM | > 1000 nM | 
GECKGKGAKCSSISIHDAHCCTGSCRSGKC (designed binder) [recombinant Ig-CON-5 after TEV protease digestion] |  |  | Kd [5]: 10 nM
